These are literature values, as cited in publication PMC11394807.

Read-outs that look alike come from different tables or passages of the source.

For series [1], the target named is Spike protein (SARS-CoV-2) (UniProt P0DTC2).
Series [2] shares this target. The source holds these as a separate data set.
Series [3] concerns the target Spike protein RBD (SARS-CoV-2) (UniProt P0DTC2).
Series [4] concerns the target Spike protein (SARS-CoV-2) (UniProt P0DTC2). This is another data set of the same source.
Series [5] has the same target. The source holds these as a separate data set.

ASGR1, sequence (P07306 whole entry): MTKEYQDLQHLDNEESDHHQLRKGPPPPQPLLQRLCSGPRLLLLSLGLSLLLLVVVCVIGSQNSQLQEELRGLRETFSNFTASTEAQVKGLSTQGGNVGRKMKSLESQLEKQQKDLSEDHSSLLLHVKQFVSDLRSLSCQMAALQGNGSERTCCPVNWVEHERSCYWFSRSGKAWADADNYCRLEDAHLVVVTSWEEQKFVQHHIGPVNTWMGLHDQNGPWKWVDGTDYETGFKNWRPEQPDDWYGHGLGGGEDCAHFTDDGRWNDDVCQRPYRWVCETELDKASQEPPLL
GRP78, sequence (P11021 19-654): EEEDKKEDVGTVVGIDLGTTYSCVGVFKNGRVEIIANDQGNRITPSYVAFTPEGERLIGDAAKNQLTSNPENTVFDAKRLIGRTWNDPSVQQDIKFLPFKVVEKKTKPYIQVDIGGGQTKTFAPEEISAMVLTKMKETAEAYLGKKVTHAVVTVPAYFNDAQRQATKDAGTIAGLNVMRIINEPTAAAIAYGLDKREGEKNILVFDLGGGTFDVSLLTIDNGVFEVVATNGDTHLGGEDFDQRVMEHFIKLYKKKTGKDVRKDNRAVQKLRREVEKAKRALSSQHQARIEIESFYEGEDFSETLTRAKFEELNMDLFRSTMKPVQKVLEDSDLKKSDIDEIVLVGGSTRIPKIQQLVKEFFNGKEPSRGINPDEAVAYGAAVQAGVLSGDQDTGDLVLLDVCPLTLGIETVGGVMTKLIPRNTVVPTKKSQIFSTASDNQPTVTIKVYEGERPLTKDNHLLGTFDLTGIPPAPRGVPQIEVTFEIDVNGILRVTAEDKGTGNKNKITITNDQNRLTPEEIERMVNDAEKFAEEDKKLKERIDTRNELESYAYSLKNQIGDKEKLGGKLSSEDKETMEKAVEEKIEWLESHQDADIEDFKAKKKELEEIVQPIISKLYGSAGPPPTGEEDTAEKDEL

Consider ASGR1 (from UniProt P07306), for which the Kd in series [1] is 125 nM.

Regarding AXL (from UniProt P30530), the dissociation constant Kd in series [2] was 882 nM.

As to CD147 (from UniProt P35613), the Kd in series [3] was 185 nM.

As for GRP78 (from UniProt P11021), the Kd in series [4] was 55.2 nM.

Regarding NRP1 (from UniProt O14786), in series [5], the dissociation constant Kd is 166 nM.

For orientation: Kd means the concentration at which binding is half-saturated.
